The target in the experiment is tropomyosin receptors kinase A (TrkA) (rat (endogenous in PC12)) (UniProt P35739).
UniProt P35739, sequence (P35739 33-799): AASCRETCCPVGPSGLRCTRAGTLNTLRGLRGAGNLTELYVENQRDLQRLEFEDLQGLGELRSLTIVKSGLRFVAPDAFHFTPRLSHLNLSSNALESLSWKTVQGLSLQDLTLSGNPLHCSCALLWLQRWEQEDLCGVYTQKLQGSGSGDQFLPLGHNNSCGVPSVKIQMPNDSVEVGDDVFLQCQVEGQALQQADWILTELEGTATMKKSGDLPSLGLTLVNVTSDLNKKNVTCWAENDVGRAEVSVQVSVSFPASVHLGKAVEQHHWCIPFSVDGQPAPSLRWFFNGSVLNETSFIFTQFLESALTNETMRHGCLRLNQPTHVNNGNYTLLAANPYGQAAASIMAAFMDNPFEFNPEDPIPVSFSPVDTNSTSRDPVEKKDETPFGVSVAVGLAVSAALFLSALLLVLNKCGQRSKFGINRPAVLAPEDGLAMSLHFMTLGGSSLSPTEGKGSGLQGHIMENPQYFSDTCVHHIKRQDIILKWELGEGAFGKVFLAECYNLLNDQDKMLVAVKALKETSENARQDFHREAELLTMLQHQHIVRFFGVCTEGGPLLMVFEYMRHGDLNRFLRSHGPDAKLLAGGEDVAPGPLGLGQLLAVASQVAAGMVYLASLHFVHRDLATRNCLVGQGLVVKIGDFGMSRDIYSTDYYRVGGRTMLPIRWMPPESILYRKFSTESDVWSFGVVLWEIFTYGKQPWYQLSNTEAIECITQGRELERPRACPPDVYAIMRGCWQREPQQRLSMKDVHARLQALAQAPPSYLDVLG

The substance NGF(1-14) (peptide) displayed a phosphorylation of TrkA (Tyr-490), Western blot, PC12 cells, 50 uM peptide with 1 uM CuSO4, 10 min, % of the untreated control of 825% and a phosphorylation of TrkA (Tyr-490), Western blot, PC12 cells, 50 uM peptide, 10 min, % of the untreated control of 540%.

Turning to d-NGF(1-15) (peptide), the phosphorylation of TrkA (Tyr-490), Western blot, PC12 cells, 50 uM peptide with 1 uM CuSO4, 10 min, % of the untreated control stood at 1020% and the phosphorylation of TrkA (Tyr-490), Western blot, PC12 cells, 50 uM peptide, 10 min, % of the untreated control came to 653%.

Values taken from publication PMC6523629.
